Measured values as given in paper PMC11217426, “RNA-guided RNA silencing by an Asgard archaeal Argonaute”.
Numbering of substitutions follows the chain as printed.

Experiments:
[1] = molecular target: T1, HrAgo1 (Candidatus Harpocratesius repetitus …, UniProt A0AAT8XUE3 1-817); experiment: single-molecule FRET; 500 mM NaCl; majority dwell > 200 s, plus transient sub-population; smFRET: 50 mM Tris-HCl pH 8.0, 500 mM NaCl (50 mM for EfPiwi), 1 mM Trolox, glucose oxidase/catalase, 22 C; cryo-EM: 5 mM HEPES pH 7.5, 250 mM KCl, 5 mM MgCl2; settings: protein: recombinant, tags: His-MBP removed by TEV, label: Cy5 guide, Cy3 target, 3' biotin target
T1 sequence: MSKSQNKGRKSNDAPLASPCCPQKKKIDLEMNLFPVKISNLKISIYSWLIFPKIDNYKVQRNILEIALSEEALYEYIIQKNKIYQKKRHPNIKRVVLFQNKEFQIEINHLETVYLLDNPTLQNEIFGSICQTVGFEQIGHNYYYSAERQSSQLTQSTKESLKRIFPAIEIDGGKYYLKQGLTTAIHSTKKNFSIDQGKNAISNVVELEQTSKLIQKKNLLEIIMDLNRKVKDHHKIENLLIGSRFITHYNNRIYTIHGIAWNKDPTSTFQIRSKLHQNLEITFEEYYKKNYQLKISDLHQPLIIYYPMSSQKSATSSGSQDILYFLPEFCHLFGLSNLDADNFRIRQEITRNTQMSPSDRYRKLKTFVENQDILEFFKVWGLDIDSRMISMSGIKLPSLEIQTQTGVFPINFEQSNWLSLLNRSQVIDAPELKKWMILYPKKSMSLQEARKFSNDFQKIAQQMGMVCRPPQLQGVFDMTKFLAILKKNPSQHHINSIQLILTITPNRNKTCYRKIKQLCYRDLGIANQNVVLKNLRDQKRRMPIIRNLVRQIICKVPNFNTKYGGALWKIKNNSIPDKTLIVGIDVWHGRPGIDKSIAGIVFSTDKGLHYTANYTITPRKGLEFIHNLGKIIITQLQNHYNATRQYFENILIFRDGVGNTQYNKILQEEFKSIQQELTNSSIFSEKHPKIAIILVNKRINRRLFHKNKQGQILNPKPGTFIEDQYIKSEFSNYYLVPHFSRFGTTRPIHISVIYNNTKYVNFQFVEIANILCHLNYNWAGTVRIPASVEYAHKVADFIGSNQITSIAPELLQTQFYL

[2] = molecular target: T1, HrAgo1; experiment: single-molecule FRET; 500 mM NaCl; stable binding, dwell > 200 s; smFRET: 50 mM Tris-HCl pH 8.0, 500 mM NaCl (50 mM for EfPiwi), 1 mM Trolox, glucose oxidase/catalase, 22 C; cryo-EM: 5 mM HEPES pH 7.5, 250 mM KCl, 5 mM MgCl2; settings: protein: recombinant; tags: His-MBP removed by TEV; label: Cy5 guide, Cy3 target, 3' biotin target; guide nt 2-16 pair
[3] = molecular target: T1, HrAgo1; experiment: cryo-EM structure; 5 mM MgCl2; smFRET: 50 mM Tris-HCl pH 8.0, 500 mM NaCl (50 mM for EfPiwi), 1 mM Trolox, glucose oxidase/catalase, 22 C; cryo-EM: 5 mM HEPES pH 7.5, 250 mM KCl, 5 mM MgCl2; settings: protein: recombinant; tags: His-MBP removed by TEV; single strand; only 6 nt modelled

B1: guide N6 / target N6 (dsRNA)
RNA 1: UGAGGUAUUUUUUUUUUUUUUU
RNA 2: UUUUUUUUUUUUUUUUUUUCUACCUCUUUUUUUUUUUUUUUUUUUUUUUUUUUUUUU
modifications: guide 5' phosphate; 5-LC-N-U at guide nt 9 and target nt 11
[1]; guide nt 2-7 pair
  binding result: binds

B2: guide N15 / target N15 (dsRNA)
RNA 1: UGAGGUAGUAGGUUGUUUUUUU
RNA 2: B1 RNA 2 with U12A, U13C, U14A, U15A, U16C, U17C, U19A
modifications: guide 5' phosphate; 5-LC-N-U at guide nt 9 and target nt 11
[2]
  binding result: binds

B3: guide N8 / target N8 (dsRNA)
RNA 1: UGAGGUAGUUUUUUUUUUUUUU
RNA 2: B1 RNA 2 with U19A
modifications: guide 5' phosphate; 5-LC-N-U at guide nt 9 and target nt 11
[1]; guide nt 2-9 pair
  binding result: binds

## UGAGGUAGUAGGUUGUAUAGU (ssRNA, 5' phosphate) [let-7a guide RNA (cryo-EM)]
[3]
  binding result: binds
